The source of these data is article PMC6919630, “Novel cholinesterase paralogs of Schistosoma mansoni have perceived roles in cholinergic signalling and drug detoxification and are essential for parasite survival” (PLoS Pathogens, 2019).

The target of one series is T1, SmAChE1 (Schistosoma mansoni, UniProt Q71SU7).
T1 construct: full length minus signal peptide, C-terminal 6-His tag (pPICZalphaA), secreted from Pichia pastoris X-33, IMAC purified; synthetic ORF
The experiment in a line: Ellman assay, inhibition of AcSCh hydrolysis. Conditions: AcSCh 2 mM; 20 min preincubation at RT; pH 7.4; organophosphate. Format: biochemical.

Another series deals with T2, SmAChE2 (Schistosoma mansoni, UniProt A0A3Q0KMM5).
T2 construct: full length minus signal peptide, C-terminal 6-His tag (pPICZalphaA), secreted from Pichia pastoris X-33, IMAC purified; synthetic ORF
T2 sequence (A0A3Q0KMM5 entry or part of it): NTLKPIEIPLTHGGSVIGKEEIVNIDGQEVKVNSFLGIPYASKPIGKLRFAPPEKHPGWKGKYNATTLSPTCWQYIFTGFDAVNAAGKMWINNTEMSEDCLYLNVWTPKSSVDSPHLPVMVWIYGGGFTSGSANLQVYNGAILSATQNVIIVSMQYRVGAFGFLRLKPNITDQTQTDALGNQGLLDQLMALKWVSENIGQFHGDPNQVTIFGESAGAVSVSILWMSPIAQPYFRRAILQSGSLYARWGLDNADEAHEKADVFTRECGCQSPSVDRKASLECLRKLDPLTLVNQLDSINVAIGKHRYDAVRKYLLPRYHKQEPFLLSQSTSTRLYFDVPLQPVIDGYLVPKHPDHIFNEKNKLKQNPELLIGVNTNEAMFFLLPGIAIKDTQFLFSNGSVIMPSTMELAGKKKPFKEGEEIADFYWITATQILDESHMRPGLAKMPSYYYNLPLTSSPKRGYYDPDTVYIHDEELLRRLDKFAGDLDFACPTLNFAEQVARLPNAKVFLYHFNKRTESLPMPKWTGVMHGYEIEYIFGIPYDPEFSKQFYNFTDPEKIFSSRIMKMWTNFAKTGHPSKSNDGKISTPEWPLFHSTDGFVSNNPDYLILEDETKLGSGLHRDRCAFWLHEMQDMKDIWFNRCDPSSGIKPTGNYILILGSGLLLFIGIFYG
Nature of the series: Ellman assay, inhibition of AcSCh hydrolysis. Conditions: AcSCh 2 mM; 20 min preincubation at RT; pH 7.4; organophosphate. It is filed as biochemical.

In series [1] the target is T3, SmBChE1 (Schistosoma mansoni, UniProt A0A3Q0KKW0).
T3 construct: full length minus signal peptide, C-terminal 6-His tag (pPICZalphaA), secreted from Pichia pastoris X-33, IMAC purified; synthetic ORF
T3 sequence (A0A3Q0KKW0 entry or part of it): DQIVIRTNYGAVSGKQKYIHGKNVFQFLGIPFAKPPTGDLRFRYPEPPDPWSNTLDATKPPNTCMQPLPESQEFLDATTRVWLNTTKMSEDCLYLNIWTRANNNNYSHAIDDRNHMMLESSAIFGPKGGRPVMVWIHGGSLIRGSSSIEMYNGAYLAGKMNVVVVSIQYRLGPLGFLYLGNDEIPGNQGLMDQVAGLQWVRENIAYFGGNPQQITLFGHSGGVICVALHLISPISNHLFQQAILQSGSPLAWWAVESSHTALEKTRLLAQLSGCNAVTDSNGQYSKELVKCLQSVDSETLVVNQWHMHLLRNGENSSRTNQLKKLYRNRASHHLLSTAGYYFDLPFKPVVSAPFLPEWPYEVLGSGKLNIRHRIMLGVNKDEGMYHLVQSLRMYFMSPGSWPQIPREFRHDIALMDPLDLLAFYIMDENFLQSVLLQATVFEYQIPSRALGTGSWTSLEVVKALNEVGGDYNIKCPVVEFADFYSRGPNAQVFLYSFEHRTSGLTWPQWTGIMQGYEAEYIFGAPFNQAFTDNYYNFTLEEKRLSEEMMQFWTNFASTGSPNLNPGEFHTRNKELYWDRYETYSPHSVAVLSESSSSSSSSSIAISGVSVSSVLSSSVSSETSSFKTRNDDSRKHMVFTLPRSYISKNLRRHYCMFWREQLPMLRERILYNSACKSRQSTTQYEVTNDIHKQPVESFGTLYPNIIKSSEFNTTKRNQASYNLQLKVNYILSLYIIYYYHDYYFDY
The experiment in a line: Ellman assay, inhibition of BcSCh hydrolysis. It is filed as biochemical. The conditions noted are these: BcSCh 2 mM; 20 min preincubation at RT; pH 7.4; organophosphate.

The target in series [2] is T3, SmBChE1. The experiment in a line: Ellman assay, inhibition of BcSCh hydrolysis. It is filed as biochemical. Conditions: BcSCh 2 mM; 20 min preincubation at RT; pH 7.4.
In the next series the test system is CC(=O)SCC[N+](C)(C)C. Nature of the series: purified protein. It is filed as biochemical, Schistosoma mansoni. Conditions: 0.1 M sodium phosphate, pH 7.4, 0.5 mM DTNB.
A further series relates to CCCC(=O)SCC[N+](C)(C)C. The experiment in a line: purified protein. It is filed as biochemical, Schistosoma mansoni. Conditions: 0.1 M sodium phosphate, pH 7.4, 0.5 mM DTNB.

T1 sequence (Q71SU7 entry or part of it): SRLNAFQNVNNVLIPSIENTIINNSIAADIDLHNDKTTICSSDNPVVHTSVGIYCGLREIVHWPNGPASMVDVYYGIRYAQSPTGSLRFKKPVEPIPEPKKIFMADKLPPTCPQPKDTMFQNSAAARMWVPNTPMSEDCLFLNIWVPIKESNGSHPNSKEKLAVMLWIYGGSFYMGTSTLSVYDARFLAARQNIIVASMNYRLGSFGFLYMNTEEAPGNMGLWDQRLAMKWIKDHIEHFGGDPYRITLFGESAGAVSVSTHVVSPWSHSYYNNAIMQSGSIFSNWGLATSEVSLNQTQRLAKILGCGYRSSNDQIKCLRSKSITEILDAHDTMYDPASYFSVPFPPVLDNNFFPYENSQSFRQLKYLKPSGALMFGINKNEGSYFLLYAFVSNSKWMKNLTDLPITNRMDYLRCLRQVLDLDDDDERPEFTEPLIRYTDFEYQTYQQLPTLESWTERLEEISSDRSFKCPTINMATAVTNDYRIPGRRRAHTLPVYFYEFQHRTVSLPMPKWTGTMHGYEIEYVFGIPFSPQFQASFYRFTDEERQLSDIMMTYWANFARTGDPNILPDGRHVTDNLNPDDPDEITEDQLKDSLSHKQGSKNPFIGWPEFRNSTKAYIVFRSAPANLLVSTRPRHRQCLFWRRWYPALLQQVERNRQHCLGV

`COP(=O)(OC)OC=C(Cl)Cl` [DDVP, 2,2-dichlorovinyl dimethyl phosphate]: the “inhibition at 1 μM” value against SmAChE1 was “preferred substrate activity of both SmAChE1 and SmAChE2 was inhibited by DDVP”; against SmAChE2, “preferred substrate activity of both SmAChE1 and SmAChE2 was inhibited by DDVP”. In addition, the “inhibition at 1, 5 and 10 μM” value on SmBChE1 [1] was “BChE activity of schistosome extracts and recombinant SmBChE1 significantly decreased in the presence of”.
On to `CC(C)NP(=O)(NC(C)C)OP(=O)(NC(C)C)NC(C)C` [iso-OMPA], for which, at SmBChE1 [2], the “inhibition at 1 mM” value is reported as “iso-OMPA, a specific inhibitor of BChE, only inhibited SmBChE1 activity”.
Consider SmAChE1 (Schistosoma mansoni), for which, in the series with CC(=O)SCC[N+](C)(C)C, the Km is reported as 5.83 ± 1.62 mM and the Vmax is 0.00557 µmol/min/mg.
For SmAChE2 (Schistosoma mansoni), in that order: 10.87 ± 6.17 mM and 0.00559 µmol/min/mg.
Consider SmBChE1 (Schistosoma mansoni), for which, in the series with CCCC(=O)SCC[N+](C)(C)C, the Km is listed as 34.38 ± 12.71 mM and the Vmax was 0.0017 ± 9e-05 µmol/min/mg.
